Patent publication US20170260241A1 (KEMYTH BIOTECH, published 2017)

What was measured:
recombinant TLR4 protein [1] = biological target: T1, recombinant TLR4 protein; assay: competition ELISA: peptide titrated from 50 µM to 3.05 nM against MD2 (50 nM) on plate-coated TLR4; competitor MD2
T1 construct: also called Toll-like receptor 4

recombinant TLR4 protein [2] = biological target: T1, recombinant TLR4 protein; assay: competition ELISA: TLR4 coated (2 µg/mL), MD2 (50 nM) mixed with titrated peptide, residual bound MD2 detected with anti-MD2 and anti-mouse IgG-HRP, OD450; competed ligand: MD2

Row | Binder | Ki (recombinant TLR4 protein [1]) [nM] | IC50 (read off the curve) (recombinant TLR4 protein [2]) [nM]
1 | QDLTAHFTTSIPLKGNVRNLSVKIRECTGLAWEWW [N35PLY4 (N-terminal 35 amino acid fragment of C70PLY4, 402-436 amino acid residues)] | 11200 | –
2 | C70PLY4 (C-terminal 70 amino acid fragment of pneumolysin, 402-471 amino acid residues) (peptide) peptide: QDLTAHFTTSIPLKGNVRNLSVKIRECTGLAWEWWRTVYEKTDLPLVRKRTISIWGTTLYPQVEDKVEND | 74.8 | ~300
